{"source": "patent US20140186354A1", "about": "(published 2014)", "binders": {"B1": {"name": "anti-HER3/HER4 antibody M-05-74 (antibody, V domains shown)", "VH": "QVQLQQSGAELAKPGASVKMSCKTSGYTLTDYWIHWVKQRPGQGLEWIGYINPYTGYTESNQKFKDKATLTADKSSNTAYIQLSSLTSEDSAVYYCARPYYYGDYWGQGTTLTVSS", "VL": "QIVLTQSPAIMSASPGERVTITCSASSSVSYMHWFQQKPGTSPKLLIYSTSNLASGVPARFSGSGSGTSYSLTISRMEAEDAATYYCQQRSSYPFTFGSGTKLEIK", "notes": "Murine monoclonal antibody from hybridoma (supernatant or purified full length); also called M-074; M-5-74"}, "B2": {"name": "Recombinant Human Heregulin fragment (HRG) (ligand)", "chain": "GPGSSGKKPESAAGSQSPALPPQLKEMKSQESAAGSKLVLRCETSSEYSSLRFKWFKNGNELNRKNKPQNIKIQKKPGKSELRINKASLADSGEYMCKVISKLGNDSASANITIVESNEIITGMPASTEGAYVSSESPIRISVSTEGANTSSSTSTSTTGTSHLVKCAEKEKTFCVNGGECFMVKDLSNPSRYLCKCPNEFTGDRCQNYVMASFYKHLGIEFMEAEELYQK", "notes": "also called Heregulin beta (HRG)"}}, "key": {"[1]": {"biological_target": "T1, HER3 ECD-HRG complex (human, UniProt P21860 20-643)", "T1 construct": "HER3 ECD pre-incubated with a 5-fold molar excess of Heregulin (open conformation); also called Her-3 ECD/Heregulin complex", "T1 sequence (P21860 20-643 limits assumed, one chain of several)": "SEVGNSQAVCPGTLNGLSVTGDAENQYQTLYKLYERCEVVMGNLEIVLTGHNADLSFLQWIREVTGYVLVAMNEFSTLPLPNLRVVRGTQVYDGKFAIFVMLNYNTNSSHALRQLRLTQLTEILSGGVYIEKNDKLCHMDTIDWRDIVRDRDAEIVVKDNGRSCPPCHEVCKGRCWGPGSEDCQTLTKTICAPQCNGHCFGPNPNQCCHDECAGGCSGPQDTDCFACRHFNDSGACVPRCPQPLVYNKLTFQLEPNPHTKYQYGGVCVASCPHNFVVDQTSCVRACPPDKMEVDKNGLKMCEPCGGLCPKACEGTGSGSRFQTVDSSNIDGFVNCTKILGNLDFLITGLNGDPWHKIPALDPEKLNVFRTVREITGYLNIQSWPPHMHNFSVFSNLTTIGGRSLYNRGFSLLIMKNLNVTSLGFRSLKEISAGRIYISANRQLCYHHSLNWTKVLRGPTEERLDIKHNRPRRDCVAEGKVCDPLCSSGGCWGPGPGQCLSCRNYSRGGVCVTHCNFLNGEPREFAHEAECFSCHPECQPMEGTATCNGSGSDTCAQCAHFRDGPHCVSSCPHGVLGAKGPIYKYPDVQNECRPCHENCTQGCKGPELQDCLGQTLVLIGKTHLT", "test": "SPR Biacore T100"}, "[2]": {"biological_target": "T2, HER4 ECD-HRG complex (human, UniProt Q15303 26-651)", "T2 construct": "HER4 ECD pre-incubated with a 5-fold molar excess of Heregulin; also called Her-4 ECD/Heregulin complex", "T2 sequence 1": "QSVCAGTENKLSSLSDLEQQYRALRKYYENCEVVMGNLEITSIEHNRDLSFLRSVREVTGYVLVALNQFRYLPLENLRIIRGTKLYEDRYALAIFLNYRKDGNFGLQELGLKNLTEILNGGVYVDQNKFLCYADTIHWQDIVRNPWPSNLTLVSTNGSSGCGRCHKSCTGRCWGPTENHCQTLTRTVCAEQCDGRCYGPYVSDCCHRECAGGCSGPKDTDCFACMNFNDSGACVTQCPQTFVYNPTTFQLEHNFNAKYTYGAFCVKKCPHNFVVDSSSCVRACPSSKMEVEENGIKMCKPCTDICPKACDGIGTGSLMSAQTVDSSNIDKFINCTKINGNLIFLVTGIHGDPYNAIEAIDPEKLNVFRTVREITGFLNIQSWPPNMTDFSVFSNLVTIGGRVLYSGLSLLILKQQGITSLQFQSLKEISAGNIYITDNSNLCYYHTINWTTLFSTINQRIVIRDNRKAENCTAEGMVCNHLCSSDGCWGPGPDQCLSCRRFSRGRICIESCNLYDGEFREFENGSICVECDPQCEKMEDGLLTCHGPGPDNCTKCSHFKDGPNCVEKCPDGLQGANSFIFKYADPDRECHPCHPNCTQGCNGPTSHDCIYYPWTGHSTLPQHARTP", "T2 sequence 2": "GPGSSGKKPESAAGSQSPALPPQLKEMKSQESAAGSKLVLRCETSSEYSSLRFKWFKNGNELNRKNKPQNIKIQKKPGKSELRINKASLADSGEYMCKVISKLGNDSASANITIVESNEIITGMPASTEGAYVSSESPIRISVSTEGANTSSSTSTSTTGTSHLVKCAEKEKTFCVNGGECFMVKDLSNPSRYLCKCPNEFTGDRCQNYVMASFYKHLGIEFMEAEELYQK", "test": "SPR Biacore T100"}, "[3]": {"biological_target": "T3, human recombinant HER3 ECD (human, UniProt P21860 20-643)", "T3 construct": "68 kDa; without ligand said to be in the closed conformation; also called human-Her3-ECD", "T3 sequence (P21860 20-643)": "as the sequence (P21860 20-643 limits assumed, one chain of several) above", "test": "complex formed in solution before SPR"}, "[4]": {"biological_target": "T4, human recombinant HER4 ECD (human, UniProt Q15303 26-651)", "T4 sequence": "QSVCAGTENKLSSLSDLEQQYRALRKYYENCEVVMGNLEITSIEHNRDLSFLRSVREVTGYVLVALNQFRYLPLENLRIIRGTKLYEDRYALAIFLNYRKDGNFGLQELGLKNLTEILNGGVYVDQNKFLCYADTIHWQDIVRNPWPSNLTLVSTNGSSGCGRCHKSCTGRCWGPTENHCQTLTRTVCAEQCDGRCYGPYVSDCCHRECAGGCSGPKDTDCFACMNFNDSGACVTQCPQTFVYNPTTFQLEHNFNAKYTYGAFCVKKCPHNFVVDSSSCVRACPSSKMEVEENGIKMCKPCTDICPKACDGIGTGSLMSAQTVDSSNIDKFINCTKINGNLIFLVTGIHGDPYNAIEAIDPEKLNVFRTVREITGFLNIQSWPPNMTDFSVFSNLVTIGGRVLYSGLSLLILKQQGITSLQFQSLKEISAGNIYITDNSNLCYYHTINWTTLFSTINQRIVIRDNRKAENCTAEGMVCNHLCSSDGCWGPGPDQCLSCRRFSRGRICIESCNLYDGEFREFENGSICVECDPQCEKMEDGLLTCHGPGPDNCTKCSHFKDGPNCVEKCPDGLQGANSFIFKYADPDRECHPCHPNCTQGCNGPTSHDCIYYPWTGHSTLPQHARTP", "test": "complex formed in solution before SPR"}}}
{"binder": "B1", "values": [{"measurement": "ratio Ka(+Heregulin)/Ka(-Heregulin), against HER3-ECD", "setting": "[1]", "value": 4.85}, {"measurement": "ratio MR(+Heregulin)/MR(-Heregulin), against HER3-ECD", "setting": "[1]", "value": 3}, {"measurement": "ratio Ka(+Heregulin)/Ka(-Heregulin), against HER4-ECD", "setting": "[2]", "value": 23.9}, {"measurement": "ratio MR(+Heregulin)/MR(-Heregulin), against HER4-ECD", "setting": "[2]", "value": 6}]}
{"binder": "B2", "values": [{"measurement": "binding result", "setting": "[3]", "value": "binds"}, {"measurement": "binding result", "setting": "[4]", "value": "binds"}]}
